Reference: doi:10.1101/2022.10.12.511839 (bioRxiv, 2022)

T1: human Scribble PDZ3 domain (1005-1094) (human, UniProt Q14160 1005-1094)
T1 sequence (looked up): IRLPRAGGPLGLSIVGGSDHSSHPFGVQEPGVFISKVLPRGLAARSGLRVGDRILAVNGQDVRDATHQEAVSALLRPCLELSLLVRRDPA


Experiments:
[1] = biological target: human Scribble PDZ1 domain (728-815) (human, UniProt Q14160 728-815); assay: ITC
[2] = biological target: T1, human Scribble PDZ3 domain (1005-1094); assay: ITC

human Scribble PDZ1 domain (728-815), sequence (Q14160 728-815): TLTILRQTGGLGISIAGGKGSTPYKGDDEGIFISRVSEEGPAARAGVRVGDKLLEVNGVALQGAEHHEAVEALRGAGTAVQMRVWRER

Row | Binder | binding result [1] | binding result [2] | Kd [1] [µM]
1 | RRRIRRETQV [HPV70 E6 C-terminal PBM 10-mer peptide (RRRIRRETQV)] | binds | binds | –
2 | WRSRRRETAL [HPV33 E6 C-terminal PBM 10-mer peptide (WRSRRRETAL)] | binds | binds | –
3 | TSRQATESTV [HPV66 E6 C-terminal PBM 10-mer peptide (TSRQATESTV)] | binds | binds | –
4 | WRRPRTETQV [HPV31 E6 C-terminal PBM 10-mer peptide (WRRPRTETQV)] | binds | binds | –
5 | SSRTRRETQL [HPV16 E6 C-terminal PBM 10-mer peptide (SSRTRRETQL)] | – | – | 9.4
6 | RLQRRRETQV [HPV18 E6 C-terminal PBM 10-mer peptide (RLQRRRETQV)] | – | binds | –
7 | RTRQRNETQV [HPV51 E6 C-terminal PBM 10-mer peptide (RTRQRNETQV)] | binds | binds | –
